Reference: patent publication US20180148718, “COMPOUNDS AND METHODS FOR INCREASING ANTISENSE ACTIVITY” (Ionis Pharmaceuticals, Inc., published 2018)

Target: Hsp90alpha (UniProt P07900 P07900:2-732)
Experiment: filter; nitrocellulose double-filter binding, printed as binding constant
Conditions: label: 5' biotin-TEG, radiolabel
Procedure: The protein-bound ASOs were transferred to a nitrocellulose membrane and the signal intensity was determined. As a control, no significant binding was found for a PS/DNA ASO. The specific binding of protein-bound ASO to the nitrocellulose membrane was confirmed using a double-filter binding assay for PS/cEt and PS/LNA ASOs. The unbound ASOs were attracted using a Hybond-N+Nylon membrane under the Hybond ECL nitrocellulose membrane.

B1: Isis 586184 (PS/LNA) (XNA)
DNA: CTGCTAGCCTCTGGATTTGA
modifications: 5-10-5 gapmer, LNA wings 1-5 and 16-20, 2'-deoxy gap, all C 5mC, full PS
Kd: 17.7 nM
